The source of these data is paper PMC5648036.

The subject of the data set is SerRS-Avi-biotin (human cytosolic seryl-tRNA synthetase) (Homo sapiens). As to the kind of experiment: SPR. A general note: In SPR one partner is held on a chip, and binding of the other changes the refractive index at the surface.

WT tRNASer: the Kd (as a rule, the free concentration of one partner at which half of the binding sites on the other are occupied at equilibrium, for simple one-to-one binding) amounted to 3.3 nM.
